Assay results as given in IntAct's records for PubMed 17006541.

B1: DNA topoisomerase 2-binding protein 1 (Homo sapiens), Q92547 (parent)
chain: MSRNDKEPFFVKFLKSSDNSKCFFKALESIKEFQSEEYLQIITEEEALKIKENDRSLYICDPFSGVVFDHLKKLGCRIVGPQVVIFCMHHQRCVPRAEHPVYNMVMSDVTISCTSLEKEKREEVHKYVQMMGGRVYRDLNVSVTHLIAGEVGSKKYLVAANLKKPILLPSWIKTLWEKSQEKKITRYTDINMEDFKCPIFLGCIICVTGLCGLDRKEVQQLTVKHGGQYMGQLKMNECTHLIVQEPKGQKYECAKRWNVHCVTTQWFFDSIEKGFCQDESIYKTEPRPEAKTMPNSSTPTSQINTIDSRTLSDVSNISNINASCVSESICNSLNSKLEPTLENLENLDVSAFQAPEDLLDGCRIYLCGFSGRKLDKLRRLINSGGGVRFNQLNEDVTHVIVGDYDDELKQFWNKSAHRPHVVGAKWLLECFSKGYMLSEEPYIHANYQPVEIPVSHKPESKAALLKKKNSSFSKKDFAPSEKHEQADEDLLSQYENGSSTVVEAKTSEARPFNDSTHAEPLNDSTHISLQEENQSSVSHCVPDVSTITEEGLFSQKSFLVLGFSNENESNIANIIKENAGKIMSLLSRTVADYAVVPLLGCEVEATVGEVVTNTWLVTCIDYQTLFDPKSNPLFTPVPVMTGMTPLEDCVISFSQCAGAEKESLTFLANLLGASVQEYFVRKSNAKKGMFASTHLILKERGGSKYEAAKKWNLPAVTIAWLLETARTGKRADESHFLIENSTKEERSLETEITNGINLNSDTAEHPGTRLQTHRKTVVTPLDMNRFQSKAFRAVVSQHARQVAASPAVGQPLQKEPSLHLDTPSKFLSKDKLFKPSFDVKDALAALETPGRPSQQKRKPSTPLSEVIVKNLQLALANSSRNAVALSASPQLKEAQSEKEEAPKPLHKVVVCVSKKLSKKQSELNGIAASLGADYRWSFDETVTHFIYQGRPNDTNREYKSVKERGVHIVSEHWLLDCAQECKHLPESLYPHTYNPKMSLDISAVQDGRLCNSRLLSAVSSTKDDEPDPLILEENDVDNMATNNKESAPSNGSGKNDSKGVLTQTLEMRENFQKQLQEIMSATSIVKPQGQRTSLSRSGCNSASSTPDSTRSARSGRSRVLEALRQSRQTVPDVNTEPSQNEQIIWDDPTAREERARLASNLQWPSCPTQYSELQVDIQNLEDSPFQKPLHDSEIAKQAVCDPGNIRVTEAPKHPISEELETPIKDSHLIPTPQAPSIAFPLANPPVAPHPREKIITIEETHEELKKQYIFQLSSLNPQERIDYCHLIEKLGGLVIEKQCFDPTCTHIVVGHPLRNEKYLASVAAGKWVLHRSYLEACRTAGHFVQEEDYEWGSSSILDVLTGINVQQRRLALAAMRWRKKIQQRQESGIVEGAFSGWKVILHVDQSREAGFKRLLQSGGAKVLPGHSVPLFKEATHLFSDLNKLKPDDSGVNIAEAAAQNVYCLRTEYIADYLMQESPPHVENYCLPEAISFIQNNKELGTGLSQKRKAPTEKNKIKRPRVH

Assays:
[1] = variants of: B1; conditions: with e2f1_human E2F1, Q01094
[2] = variants of: B1; conditions: with akt1_human AKT1, P31749
[3] = variants of: B1; conditions: with pias2_human PIAS2, O75928
[4] = variants of: B1; conditions: with ve2_hpv16 E2, P03120
Sequence of ve2_hpv16 E2, P03120 (P03120 whole entry): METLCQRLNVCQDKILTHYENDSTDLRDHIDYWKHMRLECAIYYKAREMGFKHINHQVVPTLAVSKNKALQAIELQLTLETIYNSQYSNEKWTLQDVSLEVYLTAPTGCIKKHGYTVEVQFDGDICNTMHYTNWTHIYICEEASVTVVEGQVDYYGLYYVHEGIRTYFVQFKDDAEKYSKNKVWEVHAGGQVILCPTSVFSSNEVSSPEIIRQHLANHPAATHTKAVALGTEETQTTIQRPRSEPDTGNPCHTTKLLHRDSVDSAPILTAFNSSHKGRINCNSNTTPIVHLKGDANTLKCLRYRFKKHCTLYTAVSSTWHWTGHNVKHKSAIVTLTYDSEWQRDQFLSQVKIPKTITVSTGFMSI

Sequence of e2f1_human E2F1, Q01094 (Q01094 whole entry): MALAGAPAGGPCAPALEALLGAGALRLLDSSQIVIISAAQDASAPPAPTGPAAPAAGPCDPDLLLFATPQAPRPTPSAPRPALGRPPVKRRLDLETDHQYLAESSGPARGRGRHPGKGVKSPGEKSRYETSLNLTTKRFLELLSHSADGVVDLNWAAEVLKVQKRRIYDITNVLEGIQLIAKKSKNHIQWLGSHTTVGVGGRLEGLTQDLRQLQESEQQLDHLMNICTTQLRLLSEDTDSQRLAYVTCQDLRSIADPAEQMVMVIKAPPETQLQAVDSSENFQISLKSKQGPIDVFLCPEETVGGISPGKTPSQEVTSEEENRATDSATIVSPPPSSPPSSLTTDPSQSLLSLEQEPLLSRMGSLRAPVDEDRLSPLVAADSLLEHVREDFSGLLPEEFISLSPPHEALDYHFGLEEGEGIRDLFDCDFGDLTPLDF
Sequence of pias2_human PIAS2, O75928 (O75928 whole entry): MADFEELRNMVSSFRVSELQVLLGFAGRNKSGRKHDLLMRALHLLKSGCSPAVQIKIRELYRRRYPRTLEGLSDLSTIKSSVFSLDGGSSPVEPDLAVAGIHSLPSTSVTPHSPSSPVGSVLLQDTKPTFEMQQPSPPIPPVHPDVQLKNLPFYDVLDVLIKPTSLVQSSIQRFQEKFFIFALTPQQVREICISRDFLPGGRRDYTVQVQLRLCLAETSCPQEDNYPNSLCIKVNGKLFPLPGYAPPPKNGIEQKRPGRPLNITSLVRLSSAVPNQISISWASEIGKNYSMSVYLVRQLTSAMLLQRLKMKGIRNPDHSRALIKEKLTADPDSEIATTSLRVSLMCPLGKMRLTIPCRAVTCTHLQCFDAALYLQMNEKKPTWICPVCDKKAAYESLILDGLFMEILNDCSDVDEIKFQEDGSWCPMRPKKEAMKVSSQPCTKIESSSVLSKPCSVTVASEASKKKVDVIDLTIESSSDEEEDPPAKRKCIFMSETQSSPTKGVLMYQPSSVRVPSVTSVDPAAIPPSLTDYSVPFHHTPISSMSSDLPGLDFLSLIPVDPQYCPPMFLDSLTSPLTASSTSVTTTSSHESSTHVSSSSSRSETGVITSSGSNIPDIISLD
Sequence of akt1_human AKT1, P31749 (P31749 whole entry): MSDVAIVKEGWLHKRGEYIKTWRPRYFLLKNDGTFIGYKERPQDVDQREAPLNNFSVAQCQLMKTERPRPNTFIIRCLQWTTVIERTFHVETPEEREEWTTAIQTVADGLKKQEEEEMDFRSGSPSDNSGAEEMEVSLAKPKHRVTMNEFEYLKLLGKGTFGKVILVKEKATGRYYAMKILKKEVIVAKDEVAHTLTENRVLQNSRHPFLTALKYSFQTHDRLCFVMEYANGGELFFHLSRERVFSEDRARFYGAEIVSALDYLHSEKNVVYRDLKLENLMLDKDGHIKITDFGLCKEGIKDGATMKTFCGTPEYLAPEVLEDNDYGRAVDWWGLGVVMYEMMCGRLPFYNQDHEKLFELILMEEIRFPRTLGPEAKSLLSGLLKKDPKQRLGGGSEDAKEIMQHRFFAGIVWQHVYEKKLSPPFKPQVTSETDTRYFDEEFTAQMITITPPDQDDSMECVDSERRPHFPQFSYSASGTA

Variant | effect of a mutation on the interaction [1] | effect of a mutation on the interaction [2] | effect of a mutation on the interaction [3] | effect of a mutation on the interaction [4]
S1159D | decreasing interaction | – | – | –
S1159A | disrupting interaction | disrupting interaction | decreasing interaction | decreasing interaction
